The values below come from patent US20090131317A1, “COMPOUNDS AND PEPTIDES THAT BIND THE TRAIL RECEPTOR” (AFFYMAX, INC., priority 2007, published 2009).

First the molecules themselves.
B1: peptide homodimer based on the monomer amino acid sequence of SEQ ID NO: 22, DIG linker (peptide)
peptide: Ac-WDCLDRPGRRQCVK-NH2
modifications: disulfide 3-12 (inferred); also: homodimer via diglycolic acid (DIG) linker, site not given here
B2: peptide monomer based on the amino acid sequence of SEQ ID NO: 22 conjugated to a DIG linker moiety (peptide)
peptide: Ac-WDCLDRPGRRQCVK-NH2
modifications: disulfide 3-12 (inferred); also: DIG linker moiety conjugated, site not given here
B3: peptide homodimer based on the peptide monomer amino acid sequence of SEQ ID NO: 30, DIG linker (peptide)
peptide: Ac-WDCLVDRPGRRQCVRLERK-NH2
modifications: disulfide 3-13 (inferred); also: homodimer via diglycolic acid (DIG) linker, site not given here
B4: peptide homodimer based on the peptide monomer amino acid sequence of SEQ ID NO: 29, DIG linker (peptide)
peptide: Ac-WDCLVDRPGRRQCVRLEK-NH2
modifications: disulfide 3-13 (inferred); also: homodimer via diglycolic acid (DIG) linker, site not given here
B5: peptide homodimer based on the peptide monomer amino acid sequence of SEQ ID NO: 31, DIG linker (peptide)
peptide: Ac-WDCLVDRPGRRQCVKLER-NH2
modifications: disulfide 3-13 (inferred); also: homodimer via diglycolic acid (DIG) linker, site not given here

“And” between values parts separate entries of the source, which are not always exact repeats. Equal values may be shown once. Numbered stars: 1 amine (or outer) side, 2 acyl side, 3 side chain; on linkers, the order of the positions; unused ones are H or OH. Bridge positions count the residues as written; N and C are the ends. Peptide text beside a SMILES is read from it. I, II: the chains in the order shown. Diglycolyl = O=C(COCC(=O)[*:2])[*:1]; DIG = diglycolic acid linker

The first assay addresses T1, Recombinant human TRAIL R2-Fc fusion protein (R&D Systems) (human, UniProt O14763 52-182, limits assumed).
T1 construct: Bought from R&D Systems; held on protein A-coated acceptor beads in the AlphaQuest/AlphaScreen assay; also called TRAIL R2 receptor; R2 receptor; not shown: Fc part of the bought fusion protein
Kind of assay: AlphaQuest competition: displaces biotinylated TRAIL ligand from human TRAIL R2-Fc.
Details: not given
On the procedure:
The plates are sealed with adhesive sealing film and covered with aluminum foil, centrifuged at 600 rpm for 30 seconds and incubated overnight in the dark. […] The raw data are analyzed using GraphPad Prism® software (La Jolla, Calif.) to calculate IC₅₀ values from a 4-parameter logistic equation.
Regarding B1, the half-inhibitory concentration (IC50) came to 6.2 nM. Same read-out and setting: then Ac-DCLDNRIGRRQCVKL-NH2 (disulfide 2-12 (inferred)) [peptide monomer based on the amino acid sequence of SEQ ID NO: 25], with at least 100000 nM; and B2, with 1200 to 2300 nM; and Ac-GGSWDCLDNRIGRRQCVKL-NH2 (disulfide 6-16 (inferred)) [peptide monomer based on the amino acid sequence of SEQ ID NO: 20], with about 303 nM. Same read-out and setting: then Ac-WDCLDNRIGRRQCVK-NH2 (disulfide 3-13 (inferred)) [peptide monomer based on the amino acid sequence of SEQ ID NO: 28], with about 80 nM.

The target in the next assay is T2, human TRAIL R2 (Homo sapiens, UniProt O14763).
T2 construct: purchased R&D Systems, Minneapolis, Minn
As to the kind of experiment: AlphaQuest TRAIL R2 receptor binding competition assay (AlphaScreen, biotinylated TRAIL ligand vs TRAIL R2-Fc). As to conditions: competition with biotinylated TRAIL ligand; single values and ranges over assays; read-out: binding activity (IC50). From the text: Laser excitation (680 nm) of a photosensitizer in the donor bead generates singlet state oxygen molecules, which react with a chemiluminescer in the acceptor bead to generate a detectable light signal (520-620 nm). Because the singlet O2 molecules have an extremely short half-life (i.e., t ½), a signal is generated only when the donor and acceptor beads are brought into close proximity, by TRAIL binding to the R2 receptor. The presence of unlabeled test peptide that competes with TRAIL for binding to the R2 receptor will prevent this binding, resulting in a measurable decrease in light emission.
Recombinant human TRAIL R2-Fc fusion protein (R&D Systems, Minneapolis, Minn.) is diluted in AlphaQuest® buffer to a concentration of 600 pM, pre-mixed with 1.9 μL Protein A-coated acceptor beads and 1.9 μL streptavidin-coated donor beads (Perkin-Elmer®, Waltham, Mass.), then 2 μL is added to each well of the assay plate. […] The plates are sealed with adhesive sealing film and covered with aluminum foil, centrifuged at 600 rpm for 30 seconds and incubated overnight in the dark. […] The raw data are analyzed using GraphPad Prism® software (La Jolla, Calif.) to calculate IC50 values from a 4-parameter logistic equation.
For `CC(=O)N[C@@H](Cc1c[nH]c2ccccc12)C(=O)N[C@@H](CC(=O)O)C(=O)N[C@H]1CSSC[C@@H](C(=O)N[C@H](C(=O)N[C@@H](CCCCN)C(N)=O)C(C)C)NC(=O)[C@H](CCC(N)=O)NC(=O)[C@H](CCCNC(=N)N)NC(=O)[C@H](CCCNC(=N)N)NC(=O)CNC(=O)[C@@H]2CCCN2C(=O)[C@H](CCCNC(=N)N)NC(=O)[C@H](CC(=O)O)NC(=O)[C@H](CC(C)C)NC1=O` [SEQ ID NO: 22 monomer] (Ac-WDCLDRPGRRQCVK-NH2; disulfide 3-12), the IC50 is 3550 to 10700 nM. Still for that read-out and setting: with `CC[C@H](C)[C@@H]1NC(=O)[C@H](CCCNC(=N)N)NC(=O)[C@H](CC(N)=O)NC(=O)[C@H](CC(=O)O)NC(=O)[C@H](CC(C)C)NC(=O)[C@@H](NC(=O)[C@H](CC(=O)O)NC(=O)[C@H](Cc2c[nH]c3ccccc23)NC(C)=O)CSSC[C@@H](C(=O)N[C@H](C(=O)N[C@@H](CCCNC(=N)N)C(N)=O)C(C)C)NC(=O)[C@H](CCC(N)=O)NC(=O)[C@H](CCCNC(=N)N)NC(=O)[C@H](CCCCNC(=O)COCC(=O)NCCCC[C@@H]2NC(=O)CNC(=O)[C@H]([C@@H](C)CC)NC(=O)[C@H](CCCNC(=N)N)NC(=O)[C@H](CC(N)=O)NC(=O)[C@H](CC(=O)O)NC(=O)[C@H](CC(C)C)NC(=O)[C@@H](NC(=O)[C@H](CC(=O)O)NC(=O)[C@H](Cc3c[nH]c4ccccc34)NC(C)=O)CSSC[C@@H](C(=O)N[C@H](C(=O)N[C@@H](CCCNC(=N)N)C(N)=O)C(C)C)NC(=O)[C@H](CCC(N)=O)NC(=O)[C@H](CCCNC(=N)N)NC2=O)NC(=O)CNC1=O` [SEQ ID NO: 33 homodimer] (I: Ac-WDCLDNRIGKRQCVR-NH2 / II: Ac-WDCLDNRIGKRQCVR-NH2; disulfide I:3-I:13, II:3-II:13; linker I:10-II:10 via Diglycolyl) the figure was 0.025 to 0.092 nM and ~0.061 nM; with `CC[C@H](C)[C@@H]1NC(=O)[C@H](CCCNC(=N)N)NC(=O)[C@H](CC(N)=O)NC(=O)[C@H](CC(=O)O)NC(=O)[C@H](CC(C)C)NC(=O)[C@@H](NC(=O)[C@H](CC(=O)O)NC(=O)[C@H](Cc2c[nH]c3ccccc23)NC(C)=O)CSSC[C@@H](C(=O)N[C@H](C(=O)N[C@@H](CCCNC(=N)N)C(N)=O)C(C)C)NC(=O)[C@H](CCC(N)=O)NC(=O)[C@H](CCCNC(=N)N)NC(=O)[C@H](CCCCN)NC(=O)CNC1=O` [SEQ ID NO: 33 monomer] (Ac-WDCLDNRIGKRQCVR-NH2; disulfide 3-13), 200 to 5700 nM; with `CC[C@H](C)[C@@H]1NC(=O)[C@H](CCCNC(=N)N)NC(=O)[C@H](CC(N)=O)NC(=O)[C@H](CC(=O)O)NC(=O)[C@H](CC(C)C)NC(=O)[C@@H](NC(=O)[C@H](CC(=O)O)NC(C)=O)CSSC[C@@H](C(=O)N[C@H](C(=O)N[C@@H](CCCCN)C(=O)N[C@@H](CC(C)C)C(N)=O)C(C)C)NC(=O)[C@H](CCC(N)=O)NC(=O)[C@H](CCCNC(=N)N)NC(=O)[C@H](CCCNC(=N)N)NC(=O)CNC1=O` [SEQ ID NO: 25 monomer] (Ac-DCLDNRIGRRQCVKL-NH2; disulfide 2-12), at least 100000 nM.

A further assay has as its system Jurkat cells.
Test: not given
Details: not given
The format is cell-based. As to the method:
The apoptotic activity of test peptides is measured using a Jurkat proliferation assay.
Jurkat cells are obtained from the American Type Culture Collection (ATCC, Manassas, Va.) and are maintained in RPMI-1640 medium supplemented with 10% FBS, 100 U/mL penicillin, and 100 […] (Growth Medium). […] Cells are resuspended at a density of 1×10^6 cells/mL in Growth Medium, and 50 μl cells is added to each well of the assay plates. The plates are incubated in a 37° C., 5% CO2 incubator for 24-48 hours. Proliferation is assessed by adding 10 μL of MTT stock solution (ATCC, Manassas, Va.) to the wells. The plates are incubated in a 37° C., 5% CO2 incubator for another 2-4 hours, followed by the addition of 100 μL of 20% SDS with 0.01 N HCl. After incubation overnight in a 37° C., 5% CO2 incubator, the plates are quantified by reading the optical density at a wavelength of 595 nm (OD595) in a SpectraMax® M5 microplate reader (Molecular Devices, Sunnyvale, Calif.). The data are analyzed using GraphPad Prism® software (La Jolla, Calif.) to calculate IC50 values from a 4-parameter logistic equation.
In the case of `CC(=O)N[C@@H](Cc1c[nH]c2ccccc12)C(=O)N[C@@H](CC(=O)O)C(=O)N[C@H]1CSSC[C@@H](C(=O)N[C@H](C(=O)N[C@@H](CCCNC(=N)N)C(=O)N[C@@H](CC(C)C)C(=O)N[C@@H](CCC(=O)O)C(=O)N[C@@H](CCCNC(=N)N)C(=O)N[C@@H](CCCCNC(=O)COCC(=O)NCCCC[C@H](NC(=O)[C@H](CCCNC(=N)N)NC(=O)[C@H](CCC(=O)O)NC(=O)[C@H](CC(C)C)NC(=O)[C@H](CCCNC(=N)N)NC(=O)[C@@H](NC(=O)[C@@H]2CSSC[C@H](NC(=O)[C@H](CC(=O)O)NC(=O)[C@H](Cc3c[nH]c4ccccc34)NC(C)=O)C(=O)N[C@@H](CC(C)C)C(=O)N[C@@H](C(C)C)C(=O)N[C@@H](CC(=O)O)C(=O)N[C@@H](CCCNC(=N)N)C(=O)N3CCC[C@H]3C(=O)NCC(=O)N[C@@H](CCCNC(=N)N)C(=O)N[C@@H](CCCNC(=N)N)C(=O)N[C@@H](CCC(N)=O)C(=O)N2)C(C)C)C(N)=O)C(N)=O)C(C)C)NC(=O)[C@H](CCC(N)=O)NC(=O)[C@H](CCCNC(=N)N)NC(=O)[C@H](CCCNC(=N)N)NC(=O)CNC(=O)[C@@H]2CCCN2C(=O)[C@H](CCCNC(=N)N)NC(=O)[C@H](CC(=O)O)NC(=O)[C@H](C(C)C)NC(=O)[C@H](CC(C)C)NC1=O` [SEQ ID NO: 30 homodimer] (I: Ac-WDCLVDRPGRRQCVRLERK-NH2 / II: Ac-WDCLVDRPGRRQCVRLERK-NH2; disulfide I:3-I:13, II:3-II:13 (inferred); linker I:19-II:19 via Diglycolyl (inferred)), the EC50 was 611 to 1090 nM.

Another assay addresses TRAIL R2 receptor on HCT-116 or Jurkat cells (UniProt O14763 56-440, limits assumed). As to the kind of experiment: cell-based or functional assay.
Details: not given
As to Ac-WDCLDNRIGRRQCVK(DIG)L-NH2 (disulfide 3-13; also: homodimer joined through DIG linker) [peptide homodimer based on the monomer amino acid sequence of SEQ ID NO: 19, DIG linker], the “EC50, apoptotic activity in HCT-116 proliferation assay (MTT)” value was about 1620 nM. As for Ac-WDCLDNRIGRRQCVKL-NH2 (disulfide 3-13; also: homodimer via DOD linker, site not given here) [peptide homodimer based on the peptide monomer amino acid sequence of SEQ ID NO: 19, DOD linker], the “EC50, Jurkat proliferation assay (apoptosis, MTT)” value (“EC50, Jurkat proliferation assay” below) lay within 2000 to 4410 nM. On the same count and under the same terms, with B3 the figure was 611 to 1090 nM. On to B4, for which the “EC50, Jurkat proliferation assay” value was in the range of 1300 to 1660 nM.

Regarding Ac-WDCLDNRIGRRQCVKL-NH2 (disulfide 3-13; also: homodimer via IPA linker, site not given here) [peptide homodimer based on the peptide monomer amino acid sequence of SEQ ID NO: 19, IPA linker], the “EC50, Jurkat proliferation assay” value lay within 1400 to 4020 nM. Still for that read-out and setting: with B5 the figure was over 33000 nM.

As to Ac-WDCLDNRIGRRQCVKL-NH2 (disulfide 3-13; also: homotrimer via TSAT linker, site not given here) [peptide homotrimer based on the peptide monomer sequence of SEQ ID NO: 19, TSAT linker], the “EC50, apoptotic activity in HCT-116 proliferation assay (MTT)” value is about 480 nM.

As a reminder, the IC50 is the concentration at which inhibition is half-maximal. What is called EC50 is the concentration at which the effect is half-maximal.
